Patent US9738884B2, “Therapeutic agent for epithelial and endothelial injury” (NIHON UNIVERSITY, priority 2012, dated 2017)

Tested on: A431 cells
Assay: Adhesion of A431 cells to the substrate, cells removed when the culture dish was shaken (Example 2)
Assay type: cell-based
Settings: 1 pmol/ml, 96-well culture dish
Procedure: FIG. 2 is a graph showing the results of Example 2 of the present application. The numerical value of the vertical axis indicates the number of cells removed from the bottom surface when a culture dish was shaken.
A portion in the entire-length F9 (F9(47-471)), which has an activity of inducing spread of cells on a substrate, was determined using an ability to adhere to the substrate as an indicator. […] Thereafter, an F9 portion having an action to inhibit the aforementioned inhibitory action was examined under conditions in which a culture was performed at 37° C. for 24 hours and the culture dish was then shaken on a shaker. It is to be noted that F9(47-191) is a peptide consisting of amino acids at positions 47 to 191 in the amino acid sequence shown in SEQ ID NO: 8, and that F9(192-202) is a peptide consisting of amino acids at positions 192 to 202 in the amino acid sequence shown in SEQ ID NO: 8. […] Each of the numerical values (on the vertical axis) in the graph of FIG. 2 is indicated as a mean±SD (**: P<0.01). In addition, in FIG. 2, the term “47-191” indicates the conditions in which F9(47-191) was added, and the terms “47-471,” “192-236,” “192-216,” and “192-202” indicate the results obtained in the case of adding F9(47-471), F9(192-236), F9(192-216), and F9(192-202), respectively.

B1: F9(47-191): peptide consisting of amino acids at positions 47 to 191 of SEQ ID NO: 8 (mouse F9) (protein, listed as Mus musculus)
chain: YNSGKLEEFVRGNLERECIEERCSFEEAREVFENTEKTTEFWKQYVDGDQCESNPCLNGGICKDDISSYECWCQVGFEGRNCELDATCNIKNGRCKQFCKNSPDNKVICSCTEGYQLAEDQKSCEPTVPFPCGRASISYSSKKIT
In the case of B1, the “action on adhesion between the cells and the substrate” value is reported as “action to inhibit adhesion between the cells and the substrate”.
